T1: pneumolysin (Streptococcus pneumoniae, UniProt P0C2J9 1-471)
T1 chain: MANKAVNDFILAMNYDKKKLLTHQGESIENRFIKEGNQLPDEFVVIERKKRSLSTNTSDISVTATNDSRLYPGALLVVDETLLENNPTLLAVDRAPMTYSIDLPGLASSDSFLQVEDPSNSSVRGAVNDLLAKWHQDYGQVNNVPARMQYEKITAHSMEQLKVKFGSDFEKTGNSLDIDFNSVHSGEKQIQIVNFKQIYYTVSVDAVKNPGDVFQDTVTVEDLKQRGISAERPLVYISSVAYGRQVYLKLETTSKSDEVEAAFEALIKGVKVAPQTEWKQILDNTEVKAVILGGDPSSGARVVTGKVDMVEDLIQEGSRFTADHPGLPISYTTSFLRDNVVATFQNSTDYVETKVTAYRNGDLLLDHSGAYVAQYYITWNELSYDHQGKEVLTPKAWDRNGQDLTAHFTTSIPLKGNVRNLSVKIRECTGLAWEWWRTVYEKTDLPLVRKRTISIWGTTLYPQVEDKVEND

B1: high-molecular-weight kininogen (natural protein)
chain: QESQSEEIDCNDKDLFKAVDAALKKYNSQNQSNNQFVLYRITEATKTVGSDTFYSFKYEIKEGDCPVQSGKTWQDCEYKDAAKAATGECTATVGKRSSTKFSVATQTCQITPAEGPVVTAQYDCLGCVHPISTQSPDLEPILRHGIQYFNNNTQHSSLFMLNEVKRAQRQVVAGLNFRITYSIVQTNCSKENFLFLTPDCKSLWNGDTGECTDNAYIDIQLRIASFSQNCDIYPGKDFVQPPTKICVGCPRDIPTNSPELEETLTHTITKLNAENNATFYFKIDNVKKARVQVVAGKKYFIDFVARETTCSKESNEELTESCETKKLGQSLDCNAEVYVVPWEKKIYPTVNCQPLGMISLMKRPPGFSPFRSSRIGEIKEETTVSPPHTSMAPAQDEERDSGKEQGHTRRHDWGHEKQRKHNLGHGHKHERDQGHGHQRGHGLGHGHEQQHGLGHGHKFKLDDDLEHQGGHVLDHGHKHKHGHGHGKHKNKGKKNGKHNGWKTEHLASSSEDSTTPSAQTQEKTEGPTPIPSLAKPGVTVTFSDFQDSDLIATMMPPISPAPIQSDDDWIPDIQIDPNGLSFNPISDFPDTTSPKCPGRPWKSVSEINPTTQMKESYYFDLTDGLS
B2: factor XII (zymogen) (natural protein)
chain: IPPWEAPKEHKYKAEEHTVVLTVTGEPCHFPFQYHRQLYHKCTHKGRPGPQPWCATTPNFDQDQRWGYCLEPKKVKDHCSKHSPCQKGGTCVNMPSGPHCLCPQHLTGNHCQKEKCFEPQLLRFFHKNEIWYRTEQAAVARCQCKGPDAHCQRLASQACRTNPCLHGGRCLEVEGHRLCHCPVGYTGAFCDVDTKASCYDGRGLSYRGLARTTLSGAPCQPWASEATYRNVTAEQARNWGLGGHAFCRNPDNDIRPWCFVLNRDRLSWEYCDLAQCQTPTQAAPPTPVSPRLHVPLMPAQPAPPKPQPTTRTPPQSQTPGALPAKREQPPSLTRNGPLSCGQRLRKSLSSMTRVVGGLVALRGAHPYIAALYWGHSFCAGSLIAPCWVLTAAHCLQDRPAPEDLTVVLGQERRNHSCEPCQTLAVRSYRLHEAFSPVSYQHDLALLRLQEDADGSCALLSPYVQPVCLPSGAARPSETTLCQVAGWGHQFEGAEEYASFLQEAQVPFLSLERCSAPDVHGSSILPGMLCAGFLEGGTDACQGDSGGPLVCEDQAAERRLTLQGIISWGSGCGDRNKPGVYTDVAYYLAWIREHTVS
B3: plasma kallikrein (zymogen) (natural protein)
chain: not shown

What was measured:
Experiment in all cases: SPR
pneumolysin [1] = target: T1, pneumolysin
pneumolysin [2] = target: T1, pneumolysin
pneumolysin [3] = target: T1, pneumolysin

| Binder | Kd (pneumolysin [1]) [nM] | Ka (pneumolysin [2]) [M⁻¹] | koff (pneumolysin [3]) [s⁻¹] |
| --- | --- | --- | --- |
| B1 | 12600 | 573000 | 0.00208 |
| B2 | 24.9 | 4.41e+07 | 0.00198 |
| B3 | 328 | 3.04e+06 | 0.00942 |
